Results: patent publication US9114104B2, “Proteinase K inhibitors, methods and compositions therefor” (Life Technologies Corporation, priority 2008, dated 2015)
The star is where a group is joined. MeOSuc = COC(=O)CCC(=O)*; CH2Cl = ClC*

How the values were obtained:
[1] = molecular target: T1, proteinase K (Parengyodontium album, UniProt P06873); test: Indirect linked assay: proteinase K inhibition read out by reverse transcriptase real time PCR of Xeno RNA template (Cells-to-CT kit); format: biochemical
Source text: The present example provides for inhibition of proteinase K in the context of preparing samples for nucleic acid detection. Said preparation of samples is described by pending U.S. patent application Ser. No. 12/122,274 filed May 16, 2008 entitled “Sample Preparation for In Situ Nucleic Acid Analysis, Methods and Compositions Therefor,” hereby incorporated by reference in its entirety. Embodiments of said patent application provide a process for preparing a sample containing RNA for in situ analysis of RNA or a surrogate thereof. In some embodiments, the process comprises contacting the sample containing RNA with a lysis mixture comprising a polypeptide having protease activity under conditions and for a time to produce a lysate, and admixing at least a portion of the lysate with a stop mixture that comprises an inhibitor of the polypeptide having protease activity at substantially the same temperature as the contacting step to form a stopped mixture. The resultant stopped mixture is preferably compatible with in situ reverse transcriptase and DNA polymerase reactions.
Methoxysuccinyl tetrapeptide chloromethylketone compounds synthesized as set forth in Example 1 herein were analyzed for inhibitory activity of proteinase K in such stopped mixtures as described below. Functional validation for the nucleic acid detection system using inhibitors of embodiments herein was carried out by measuring mRNA levels in biological samples using the TaqMan® Gene Expression Cells-to-CT™ Kit and the TaqMan® Cells-to-CT™ Control Kit (Applied Biosystems, Foster City, Calif.). MicroAmp® optical 96-well reaction plates were purchased from Applied Biosystems. Disposable reagent reservoirs were purchased from VistaLab Technologies, Inc (Mt. Kisco, N.Y.). Reverse transcription (RT) reactions were performed at 37° C. for 60 min, 95° C. for 5 min, and cooled to 4° C. by using GeneAmp® PCR systems 9700 (Applied Biosystems). Real time PCR was performed by using 7500 Fast Real-Time PCR System. (Applied Biosystems).
The present indirect linked assay measures the amount of inhibition of proteinase K activity by assaying reverse transcriptase real time PCR amplification of a template, which amplification is dependent upon reverse transcriptase activity.
Stop solutions (100 μl) contained the following reagents (10× concentration):
Test inhibitor, 11 mM (final concentration when diluted into stopped mixture is 1 mM). Test inhibitor was also used at concentrations such that, when diluted with a lysis mixture to form a stopped mixture as described below, the final concentration of inhibitor in the stopped mixture was 0.75 mM, 0.5 mM, 0.25 mM, 0.10 mM, 0.05 mM and 0 mM (control).
Proteinase K lysis solution (50 μL (no added DNase)) from the TaqMan® gene expression Cells-to-CT™ kit (Applied Biosystems) was aliquoted into 18 tubes. To the test samples (these are a working equivalent to lysis mixtures in the Cells-to-CT™ workflow), stop solution (5 μL) was added; the tubes were mixed and held for 2 min at room temperature. For the control reactions, 50 μl of proteinase K buffer was mixed with 5 μl of stop mix without inhibitor and the resulting reaction mixture was heated at 95° C. for 10 min to thermally inactivate the proteinase K reaction. Next, reverse transcription reagents were prepared, i.e. 15 μL 2×RT buffer, and 1.5 μL of 20×RT enzyme mix, were aliquoted and mixed in the wells of a 96 well plate. To this RT solution, 13.5 μL of each proteinase K containing stopped mixture was added and the solution was mixed well. The resulting mixtures were incubated at room temperature for 1 hr for residual proteinase K activity to degrade the RT enzyme. After 1 hr incubation at room temperature, 1 μL of Xeno™ RNA Control template (Applied Biosystems P/N 4386995 diluted to 25,000 copies/μL in 10 ng/μL poly A) was added to all wells except for the no template control wells. […]

[2] = molecular target: T1, proteinase K; test: Detection of β-actin RNA in HeLa cell lysates after stop solution (in vitro validation); format: biochemical; conditions: FIG. 6; ~10,000 HeLa cells lysed, β-actin RT-PCR
Procedure: HeLa cells (˜10,000 cells) were lysed in 50 μl lysis solution for 5 minutes at room temperature. Stop solution (5 μl) was then added; the lysate-stop solution was mixed, and incubated for 2 minutes at room temperature. A volume of 10 μl of stopped lysate was added to a 50 μl RT reaction followed by addition of 4 μl of RT reaction into a 20 μl PCR reaction using the β-actin primers/probe of the TaqMan® Gene Expression Cells-to-CT™ Kit (Applied Biosystems).

[3] = molecular target: T1, proteinase K; conditions: 100 μg/ml proteinase K; cited from earlier work

T1 sequence (P06873 106-384): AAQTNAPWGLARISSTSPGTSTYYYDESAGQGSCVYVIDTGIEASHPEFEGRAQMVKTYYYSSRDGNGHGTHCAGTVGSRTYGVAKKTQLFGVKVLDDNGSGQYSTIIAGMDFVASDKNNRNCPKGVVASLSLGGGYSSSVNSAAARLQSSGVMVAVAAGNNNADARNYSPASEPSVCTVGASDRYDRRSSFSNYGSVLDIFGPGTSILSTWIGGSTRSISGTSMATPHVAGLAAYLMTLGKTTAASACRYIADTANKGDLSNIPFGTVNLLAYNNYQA

## methoxysuccinyl-AlaAlaProVal-chloromethyl ketone (MeOSuc-AAPV-CH2Cl) [reference compound]
[1]; Example 2, FIG. 1, tested 1 mM to 0.05 mM in stopped mixture
  lowest concentration in the stopped mixture with inhibitory activity for proteinase K: about 0.25 mM
[1]; Example 6, FIG. 5, tested 1 mM to 0.05 mM
  lowest concentration in the stopped mixture inhibitory for proteinase K activity: about 0.25 mM
[1]; FIG. 1
  concentration at which inhibitor begins to lose efficacy: greater than 0.25 mM
[1]; FIG. 1, 0.1 mM inhibitor
  average Ct (cycle threshold): 40
[1]; FIG. 1, 0.25 mM inhibitor
  average Ct (cycle threshold): about 33
[1]; FIG. 1, 0.5 mM inhibitor, Ct ~40 = active proteinase K, ~30 = inhibited
  average Ct (cycle threshold): about 30
[1]; FIG. 5, 0.1 mM inhibitor
  average Ct (cycle threshold): about 40
[1]; FIG. 5, 0.25 mM inhibitor
  average Ct (cycle threshold): about 29
[2]
  concentration providing effective inhibition of proteinase K: 0.5 mM
[3]
  lowest concentration with inhibitory activity for proteinase K: 0.25 mM
